Measurements taken from US20140087995A1 (published 2014).
Residue numbers refer to the chain shown, from its start. Numbered stars: 1 amine (or outer) side, 2 acyl side, 3 side chain; on linkers, the order of the positions; unused ones are H or OH. Bridge positions count the residues as written; N and C are the ends. * marks the point of attachment. C20 diacid = O=C(O)CCCCCCCCCCCCCCCCCCC(=O)*; γGlu = O=C(O)[C@H](CCC(=O)[*:2])N[*:1]; AEEA = NCCOCCOCC(=O)O

T1: human calcitonin receptor (human, UniProt P30988 25-474)
T1 sequence (looked up): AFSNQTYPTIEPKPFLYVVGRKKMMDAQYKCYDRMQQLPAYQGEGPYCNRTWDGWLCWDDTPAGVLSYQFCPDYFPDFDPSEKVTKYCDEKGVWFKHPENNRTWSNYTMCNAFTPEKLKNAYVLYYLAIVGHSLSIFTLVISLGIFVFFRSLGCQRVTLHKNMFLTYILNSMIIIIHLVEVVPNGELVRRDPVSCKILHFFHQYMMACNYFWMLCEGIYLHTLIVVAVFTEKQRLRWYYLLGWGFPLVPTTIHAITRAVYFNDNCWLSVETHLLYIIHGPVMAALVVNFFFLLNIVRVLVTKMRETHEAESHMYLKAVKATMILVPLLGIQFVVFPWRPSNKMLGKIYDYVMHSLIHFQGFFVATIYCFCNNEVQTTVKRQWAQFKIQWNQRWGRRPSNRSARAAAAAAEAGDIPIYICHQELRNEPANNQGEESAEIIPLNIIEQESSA

T2: human amylin receptor (amylin 3(a) receptor: human calcitonin receptor with RAMP-3) (human, UniProt P30988 25-474; O60896 24-148)
T2 sequence (looked up) 1: T1 sequence (looked up)
T2 sequence (looked up) 2: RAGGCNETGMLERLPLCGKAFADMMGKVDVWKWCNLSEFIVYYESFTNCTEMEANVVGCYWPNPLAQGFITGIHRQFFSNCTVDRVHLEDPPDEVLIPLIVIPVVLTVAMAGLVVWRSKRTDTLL

B1: N^α1-[2-[2-[2-[[2-[2-[2-[[(4S)-4-carboxy-4-(19-carboxynonadecanoylamino)butanoyl]amino]ethoxy]ethoxy]acetyl]amino]ethoxy]ethoxy]acetyl]-[Glu14,Arg17,Pro21,Pro27 … (peptide)
peptide: {C20 diacid-γGlu-AEEA-AEEA}-KCNTATCATQRLAEFLRHSSPNFGAIPSSTNVGSNTP-NH2
modifications: disulfide 2-7
SMILES: CC[C@H](C)[C@H](NC(=O)[C@H](C)NC(=O)CNC(=O)[C@H](Cc1ccccc1)NC(=O)[C@H](CC(N)=O)NC(=O)[C@@H]1CCCN1C(=O)[C@H](CO)NC(=O)[C@H](CO)NC(=O)[C@H](Cc1c[nH]cn1)NC(=O)[C@H](CCCNC(=N)N)NC(=O)[C@H](CC(C)C)NC(=O)[C@H](Cc1ccccc1)NC(=O)[C@H](CCC(=O)O)NC(=O)[C@H](C)NC(=O)[C@H](CC(C)C)NC(=O)[C@H](CCCNC(=N)N)NC(=O)[C@H](CCC(N)=O)NC(=O)[C@@H](NC(=O)[C@H](C)NC(=O)[C@@H]1CSSC[C@H](NC(=O)[C@H](CCCCN)NC(=O)COCCOCCNC(=O)COCCOCCNC(=O)CC[C@H](NC(=O)CCCCCCCCCCCCCCCCCCC(=O)O)C(=O)O)C(=O)N[C@@H](CC(N)=O)C(=O)N[C@@H]([C@@H](C)O)C(=O)N[C@@H](C)C(=O)N[C@@H]([C@@H](C)O)C(=O)N1)[C@@H](C)O)C(=O)N1CCC[C@H]1C(=O)N[C@@H](CO)C(=O)N[C@@H](CO)C(=O)N[C@H](C(=O)N[C@@H](CC(N)=O)C(=O)N[C@H](C(=O)NCC(=O)N[C@@H](CO)C(=O)N[C@@H](CC(N)=O)C(=O)N[C@H](C(=O)N1CCC[C@H]1C(N)=O)[C@@H](C)O)C(C)C)[C@@H](C)O
notes: also called compound 20
B2: N^α1-[(4S)-4-carboxy-4-(19-carboxynonadecanoylamino)butanoyl]-[Arg17,Pro21,Pro27,Lys35]-h-amylin (peptide)
peptide: KCNTATCATQRLANFLRHSSPNFGAIPSSTNVGSKTY
modifications: C20 diacid-gGlu on the alpha amino group of the N-terminal residue; disulfide bridge Cys2-Cys7; C-terminal amide
notes: also called compound 34
B3: N^α1-[(4S)-4-carboxy-4-(19-carboxynonadecanoylamino)butanoyl]-[Arg17,Pro21,Pro27,Pro31,Glu35]-h-amylin (peptide)
peptide: {C20 diacid-γGlu}-KCNTATCATQRLANFLRHSSPNFGAIPSSTPVGSETY-NH2
modifications: disulfide 2-7
SMILES: CC[C@H](C)[C@H](NC(=O)[C@H](C)NC(=O)CNC(=O)[C@H](Cc1ccccc1)NC(=O)[C@H](CC(N)=O)NC(=O)[C@@H]1CCCN1C(=O)[C@H](CO)NC(=O)[C@H](CO)NC(=O)[C@H](Cc1c[nH]cn1)NC(=O)[C@H](CCCNC(=N)N)NC(=O)[C@H](CC(C)C)NC(=O)[C@H](Cc1ccccc1)NC(=O)[C@H](CC(N)=O)NC(=O)[C@H](C)NC(=O)[C@H](CC(C)C)NC(=O)[C@H](CCCNC(=N)N)NC(=O)[C@H](CCC(N)=O)NC(=O)[C@@H](NC(=O)[C@H](C)NC(=O)[C@@H]1CSSC[C@H](NC(=O)[C@H](CCCCN)NC(=O)CC[C@H](NC(=O)CCCCCCCCCCCCCCCCCCC(=O)O)C(=O)O)C(=O)N[C@@H](CC(N)=O)C(=O)N[C@@H]([C@@H](C)O)C(=O)N[C@@H](C)C(=O)N[C@@H]([C@@H](C)O)C(=O)N1)[C@@H](C)O)C(=O)N1CCC[C@H]1C(=O)N[C@@H](CO)C(=O)N[C@@H](CO)C(=O)N[C@H](C(=O)N1CCC[C@H]1C(=O)N[C@H](C(=O)NCC(=O)N[C@@H](CO)C(=O)N[C@@H](CCC(=O)O)C(=O)N[C@H](C(=O)N[C@@H](Cc1ccc(O)cc1)C(N)=O)[C@@H](C)O)C(C)C)[C@@H](C)O
notes: also called compound 28
B4: N^α1-[(4S)-4-carboxy-4-(19-carboxynonadecanoylamino)butanoyl]-[Arg17,Pro21,Pro27,Glu35]-h-amylin (peptide)
peptide: B2 peptide with K35E
modifications: C20 diacid-gGlu on the alpha amino group of the N-terminal residue; disulfide bridge Cys2-Cys7; C-terminal amide
notes: also called compound 23

target: T1, human calcitonin receptor; assay: cell-based or functional assay

Binder | Ratio hCT/hAmylin funct. | hCTR funct. EC50 [nM]
B1 | 3.6 | 0.285
B2 | 8.4 | 2.62
B3 | 9.2 | 2.03
B4 | 8.9 | 3.02

target: T2, human amylin receptor (amylin 3(a) …); assay: cell-based or functional assay

Binder | hAmylin-R funct. EC50 [nM]
B1 | 0.08
B2 | 0.313
B3 | 0.22
B4 | 0.34
